According to paper PMC8343073:

Columns and labels:
[1] = tested on: HctA (Chlamydia trachomatis L2); test: BLI; conditions: BLI (Octet QKe, Ni-NTA sensors, His-protein immobilized): 0.1 M phosphate, 0.15 M NaCl, pH 7.2; nucleic acid 720, 240, 80 nM; temperature not stated
[2] = tested on: DdbA (Chlamydia trachomatis L2); test: BLI; conditions: BLI (Octet QKe, Ni-NTA sensors, His-protein immobilized): 0.1 M phosphate, 0.15 M NaCl, pH 7.2; nucleic acid 720, 240, 80 nM; temperature not stated

dsDNA oligo 60% GC
Kd [1]: 2.3 nM | Kd [2]: 7.3 nM
